Experimental data published in patent US20170343530A1.

Target: mutant connector conjugated with a Strep-tag to its C-terminal
Test: cell-based or functional assay

**Q.** For “streptavidin (coated on nanogold) (from UniProt P22629 37-163)”, which three discrete steps of channel change (conductance assay) is on record?
**A.** The three discrete steps of channel change (conductance assay) was 32%.
